The record followed here is paper doi:10.1101/728907 (bioRxiv, 2019).

For this assay, the target named is T1, GFLV-derived virus-like particles (VLP) in which enhanced GFP is encaged (Grapevine fanleaf virus, isolate not …).
T1 chain: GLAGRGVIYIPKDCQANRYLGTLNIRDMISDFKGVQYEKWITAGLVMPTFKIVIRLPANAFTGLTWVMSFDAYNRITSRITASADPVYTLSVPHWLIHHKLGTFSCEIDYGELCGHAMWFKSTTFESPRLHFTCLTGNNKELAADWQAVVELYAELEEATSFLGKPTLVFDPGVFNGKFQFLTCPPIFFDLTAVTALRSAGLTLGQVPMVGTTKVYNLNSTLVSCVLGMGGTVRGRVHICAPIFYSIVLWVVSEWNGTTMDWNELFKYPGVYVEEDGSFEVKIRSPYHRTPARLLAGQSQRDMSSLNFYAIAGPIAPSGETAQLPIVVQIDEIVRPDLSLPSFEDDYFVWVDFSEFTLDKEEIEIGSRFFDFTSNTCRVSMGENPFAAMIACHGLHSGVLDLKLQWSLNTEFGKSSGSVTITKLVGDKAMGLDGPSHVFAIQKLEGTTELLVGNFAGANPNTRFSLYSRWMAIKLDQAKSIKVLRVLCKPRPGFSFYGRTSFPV
The assay can be described thus: MST.

B1: Nanobody Nb23 specific to GFLV (VHH)
VHH: QVQLQESGGGSVQVGGSLRVACAASGDTFSGYLAAWFRQAPGKGREGVAAINSKRHTTSYADSVKGRFTISKDNADNIMYLEMNSLKPEDTAIYYCAAADAIGLAEYWSTPTLSAARYKYWGQGTQVTVSS
Regarding B1, the Kd is 9.13 nM.
